Consider one protein from ChEMBL document CHEMBL3864159, “Variation of the aryl substituent on the piperazine ring within the 4-(piperazin-1-yl)-2,6-di(pyrrolidin-1-yl)pyrimidine scaffold unveils potent, non-competitive inhibitors of the inflammatory caspases” (Bioorg Med Chem Lett, 2016).

As a reminder, the Km is the substrate concentration at which the rate is half of its maximum.

Compound in data set [1]: c1ccc(CCN2CCN(c3cc(N4CCCC4)nc(N4CCCC4)n3)CC2)cc1
Nature of the data set: Non-competitive inhibition of human recombinant N-terminal His-tagged DTT-activated caspase-1 expressed in Escherichia coli assessed as enzyme Vmax at 50 nM using Ac-WEHD-AMC as substrate preincubated for 30 mins followed by substrate addition by Michaelis-Menten plot analysis (reference value: 13162 +/- 1446 RFU/min).

Compound in data set [2]: c1ccc(CCN2CCN(c3cc(N4CCCC4)nc(N4CCCC4)n3)CC2)cc1
Briefly: Non-competitive inhibition of human recombinant N-terminal His-tagged DTT-activated caspase-1 expressed in Escherichia coli assessed as enzyme Vmax at 500 nM using Ac-WEHD-AMC as substrate preincubated for 30 mins followed by substrate addition by Michaelis-Menten plot analysis (reference value: 13162 +/- 1446 RFU/min).

Compound in data set [3]: c1ccc(CCN2CCN(c3cc(N4CCCC4)nc(N4CCCC4)n3)CC2)cc1
Nature of the data set: Non-competitive inhibition of human recombinant N-terminal His-tagged DTT-activated caspase-1 expressed in Escherichia coli assessed as enzyme Km at 50 nM using Ac-WEHD-AMC as substrate preincubated for 30 mins followed by substrate addition by Michaelis-Menten plot analysis (reference value: 8.18 +/- 2.9 uM).

Compound in data set [4]: c1ccc(CCN2CCN(c3cc(N4CCCC4)nc(N4CCCC4)n3)CC2)cc1
Nature of the data set: Non-competitive inhibition of human recombinant N-terminal His-tagged DTT-activated caspase-1 expressed in Escherichia coli assessed as enzyme Km at 500 nM using Ac-WEHD-AMC as substrate preincubated for 30 mins followed by substrate addition by Michaelis-Menten plot analysis (reference value: 8.18 +/- 2.9 uM).

B1: Caspase-1 (Homo sapiens), P29466 (protein)
chain: MADKVLKEKRKLFIRSMGEGTINGLLDELLQTRVLNKEEMEKVKRENATVMDKTRALIDSVIPKGAQACQICITYICEEDSYLAGTLGLSADQTSGNYLNMQDSQGVLSSFPAPQAVQDNPAMPTSSGSEGNVKLCSLEEAQRIWKQKSAEIYPIMDKSSRTRLALIICNEEFDSIPRRTGAEVDITGMTMLLQNLGYSVDVKKNLTASDMTTELEAFAHRPEHKTSDSTFLVFMSHGIREGICGKKHSEQVPDILQLNAIFNMLNTKNCPSLKDKPKVIIIQACRGDSPGVVWFKDSVGVSGNLSLPTTEEFEDDAIKKAHIEKDFIAFCSSTPDNVSWRHPTMGSVFIGRLIEHMQEYACSCDVEEIFRKVRFSFEQPDGRAQMPTTERVTLTRCFYLFPGH
With B1, the results for the Vmax in data set [1] and in data set [2] were 4440 RFU/min and 2840 RFU/min, respectively. Also, the results for the Km in data set [3] and in data set [4] were 5.76 µM and 5.75 µM, respectively.
